Assay results published in KR20150063728A (dated 2015).

Assays:
[1] = target: T1, FLAG-Tagging 된 hVEGF-C (Accession # P49767) (human, UniProt P49767 103-227, limits assumed); experiment: competitive ELISA: scFv inhibits FLAG-hVEGF-C binding to coated hVEGR-R3-Fc
T1 construct: also called FLAG-Tagging 된 VEGF-C; not shown: FLAG tag
T1 sequence (looked up): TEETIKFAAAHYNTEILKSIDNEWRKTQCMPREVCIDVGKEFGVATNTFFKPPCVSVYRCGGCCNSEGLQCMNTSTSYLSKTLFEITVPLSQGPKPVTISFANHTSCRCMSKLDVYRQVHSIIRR

[2] = target: T2, 인간 VEGF-C 폴리펩타이드 (Human VEGF-C; R&D systems; Accession # P49767) (human, UniProt P49767 103-227); experiment: ELISA, coated human VEGF-C, scFv detected with anti-HA-HRP; 50% binding concentration (Kd)
T2 construct: Bought; also called hVEGF-C
T2 sequence (looked up): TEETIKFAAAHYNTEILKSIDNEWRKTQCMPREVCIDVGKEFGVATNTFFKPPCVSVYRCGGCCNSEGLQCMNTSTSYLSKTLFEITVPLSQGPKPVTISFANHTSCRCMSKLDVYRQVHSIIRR

B1: SAIT-VEGFC-AB-4A2 (scFv 형태의 항-VEGF-C 항체) (scFv, V domains shown)
VH: EVQLLESGGGLVQPGGSLRLSCAASGFTFSSYDMSWVRQAPGKGLEWVSAISYDNGSTYYADSVKGRFTISRDNSKNTLYLQMNSLRAEDTAVYYCARDPYLARLNTFDYWGQGTLVTVSS
VL: QSVLTQPPSASGTPGQRVTISCSGSSSNIGSNNVSWYQQLPGTAPKLLIYYNSHRPSGVPDRFSGSKSGTSASLAISGLRSEDEADYYCATWDSSLNGYVFGGGTKLT
notes: Tested as library scFv (Ni-NTA purified, anti-HA detection)
- IC50 [1]: 33.4 nM
- Kd [2]: 26.2 nM
